Test results as given in US10456465B2, “Compositions, kits, and methods for the diagnosis prognosis, monitoring, treatment and modulation of post-transplant lymphoproliferative disorders and hypoxia associated angiogenesis disorders using galectin-1” (Dana-Farber Cancer Institute, Inc., priority 2009, dated 2019).

B1: anti-Gal1 monoclonal antibody 8F4F8G7 (antibody, V domains shown)
VH: EVQLQQSVAEFVRPGASVRLSCTASGFNIKNTYIHWVRQRPEQGLEWIGKIDPANGNTKYVPEFQGKATMTADTSSNTVYLHLSSLTSEDTAIYYCVDGYYGWYFAVWGTGTTVTVSS
VL: QAVVTQESALTTSPGETVTLTCRSSTGAVTTSNYANWVQEKPDHLFTGLIGATNNRAPGVPARFSGSLIGDKAVLTITGAQTEDEAIYFCALWYRNHFIFGSGTKVTVL
notes: Murine hybridoma mAb (deposit PTA-10535), lambda light chain; also called 14-19 8F4-F8-G7; clone 8F4.8F.67

Experiments:
[1] = tested on: growth factor receptor tyrosine kinases (RTKs) and signaling nodes; assay: Phospho-RTK signaling array of HUVEC; assay type: cell-based, human; details: HUVEC exposed to Gal1
Method: Cells were lysed and analyzed by the human PathScan® RTK Signaling Antibody
Array (Cell Signaling) following manufacturer's directions. For co-immunoprecipitation, 500 μg cell lysates were incubated with 2 μg of anti-VEGFR2 (55B11; Cell Signaling) or anti-NRP-1 (C-19; Santa Cruz Biotechnol) antibodies. The immunocomplexes were captured with protein G PLUS-Agarose (Santa Cruz Biotechnol) and processed for immunoblot analysis as described in Ilarregui et al. (2009) Nat Immunol 10, 981-991. Equal amounts of protein were resolved by SDS-PAGE, blotted onto nitrocellulose membranes (GE Healthcare) and probed with anti-IκB-α (C21), anti-Erk1/2 (C14), anti-phospho-Erk1/2 (E4) or anti-actin (I-19) (all from Santa Cruz Biotechnol) or anti-Akt (9272), anti-phospho-Akt (9271S), anti-VEGFR2 (55B11), anti-phospho-VEGFR2 (19A10) (all from Cell Signaling) or anti-HIF-1α (mgc3; ABR BioReagent) antibodies or a rabbit anti-Gal1 IgG (1.5 μg/ml) obtained as described in Ilarregui et al. (2009) Nat Immunol 10, 981-991.

[2] = tested on: EBV-specific CD8+ T cells; assay: rGal1-induced killing of EBV-specific CTLs; assay type: cell-based, human; details: rGal1 alone, 1.25, 2.5 or 5 μM; 4 h; 7AAD
Method: After informed consent, 40-60 ml of peripheral blood from healthy donors was used to generate both EBV-transformed LCLs and EBV-specific CTLs (Straathof et al. (2005) Blood 105:1898-904). In brief, 5×10^6 peripheral blood mononuclear cells (PBMCs) were incubated with concentrated culture supernatant from the marmoset B-lymphoblastoid cell line, B95-8, in the presence of 1 μg/ml cyclosporin A (Sandoz, Vienna, Austria) to establish a LCL. Subsequently, PBMCs (2×10^6 per well of a 24-well plate) were stimulated with irradiated LCLs (at 4,000 rads) at an effector-stimulator (E/S) ratio of 40:1. After 10 days, viable cells were restimulated with irradiated LCLs (at 4:1 E/S ratio). CTLs were expanded by weekly stimulations with autologous irradiated LCLs (at 4:1 E/S ratio) in the presence of recombinant human interleukin-2 (rhIL-2, Proleukin; Chiron Emeryville, Calif.) at concentration of 40 U/ml. After 5 cycles of stimulation, CTLs were tested for EBV specificity and cryopreserved. […]
CTLs were thawed in AIM-V media (Invitrogen) containing 10 U/ml of DNAse I (Roche Applied Science, Indianapolis, Ind.) and rested in culture overnight. […] After 4 hours, the viability of EBV-specific CD8^+ T cells was measured using 7AAD and APC-Cy7-labelled CD8 (BD Biosciences, San Jose, Calif.).

[3] = tested on: B16 tumors; assay: Adoptive transfer of CFSE-labeled T cells or fluorescent beads into B16 tumor-bearing mice; assay type: in vivo, mouse
Method: Wild-type KS cells or shRNA clones (5×10^6 cells) were injected subcutaneously into 6- to 8-week old nude mice. Wild-type B16 cells or shRNA clones (2×10^5 cells) were injected into 6- to 8-week old B6 or B6/Rag^−/− mice and tumor development was monitored as described in Rubinstein et al. (2004) Cancer Cell 5, 241-251. Treatments with 8F4F8G7 mAb or control isotype (2.5, 7.5 or 15 mg/kg; i.p. injections every three days) were initiated when tumors reached 100 mm^3. Mice were sacrificed when tumors reached a volume greater than 2 cm^3. At 2 weeks after tumor challenge, lymph node cells (5×10^5 cells/well) were restimulated for 72 h with 1×10^4 irradiated (4,000 rads) B16 cells and were analyzed for proliferation and cytokine production. For adoptive transfer, splenic T cells (5×10^6) from tumor-bearing mice were labeled with CFSE (Molecular Probes) and injected through the tail vein into tumor-bearing recipient mice treated with 8F4F8G7 or control mAb. In related studies, fluorescent beads (3 μm; BD Biosciences), rather than splenic T cells, were injected into tumor-bearing animals treated with 8F4F8G7 or control antibody. CFSE^+ cells or PerCP-labeled beads were analyzed after 24 h or 15 min respectively by flow cytometry in tumor parenchyma and spleen.

[4] = target: T1, endogenous Gal1 (Homo sapiens, UniProt P09382); assay: Reactivity with endogenous Gal1 from Hodgkin lymphoma cell line (immunoblot); assay type: binding; details: Hodgkin lymphoma cell line (L428); immunoblots
T1 construct: endogenous Gal1 from HL cell lines; endogenous in cells; host or cells: Hodgkin lymphoma cell line (L428)
T1 sequence (P09382 whole entry): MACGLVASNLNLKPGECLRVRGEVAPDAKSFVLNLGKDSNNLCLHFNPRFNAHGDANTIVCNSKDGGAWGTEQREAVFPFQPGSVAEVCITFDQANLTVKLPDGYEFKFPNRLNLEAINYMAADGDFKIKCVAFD
Excerpt: Anti-human Gal1 mAbs were obtained by immunizing B6-Cg-Tg (BCL2)22Wehi-J mice (Jackson Labs, Bar Harbor, Me.) with recombinant human glutathione-s-transferase (GST)-Gal1, generating anti-Gal1 hybridomas with standard methods and purifying the Gal1 monoclonal antibody and class-matched IgG2bλ, control by affinity chromatography. […] A previously described anti-Gal1 polyclonal antibody (Juszczynski et al. (2007) Proc Natl Acad Sci USA 104:13134-9) was used as a positive control in all assays.
Expression of Gal1 protein in HL, LCL and DLBCL cell lines was determined by Western blot (WB) using the αGal1 monoclonal antibody (8F4F8G7) or the previously described polyclonal antiserum (Juszczynski et al. (2007) Proc Natl Acad Sci USA 104:13134-9). Knock-down of LMP2A was confirmed by WB using anαLMP2a antibody (Abcam, Cambridge, Mass.). Activity of the AP-1 components, cJun and JunB, in the HL cell line L428 and the LCLs RIC and NOR were interrogated by WB using αphospho(Ser63)-cJun (Cell Signaling Technology), αcJun (Cell Signaling Technology, Danvers, Mass.), αphospho(Ser259)-JunB (Santa Cruz Biotechnology, Inc. Santa Cruz, Calif.) and αJunB (Cell Signaling Technology). WBs were normalized using αβ-actin antibody (Sigma Aldrich, St. Louis, Mo.) to determine β-actin expression as a loading control.

Molecule	phosphorylation of Akt (Thr308), Akt (Ser473) and Erk1/2 [1]	phosphorylation of VEGFR2 ([1]; as early as 15 min)	apoptosis of EBV-specific CD8+ T cells [2]	T cells reaching tumor parenchyma (increase) ([3]; CFSE-labeled T cells, vs control isotype) [fold]	number of CFSE+ T cells in spleens ([3]; recipient mice)	access of fluorescently-labeled beads to the tumor parenchyma ([3]; vs isotype-treated mice, 15 min)	reactivity with endogenous Gal1 [4]
rGal1: recombinant human galectin-1	increased	became phosphorylated	induced massive apoptosis	–	–	–	–
B1	–	–	–	3	no differences	increased access	specifically detected
